# Laboratory results reported in US20260209362A1 (VIB VZW, published 2026).
# T1: mouse IL-12Rβ2 expressed on cells (mouse, UniProt P97378 24-874)
# T1 construct: HEK293T cells, stably transduced (cDNA NM_008354); also called mIL-12RB2
# T1 sequence: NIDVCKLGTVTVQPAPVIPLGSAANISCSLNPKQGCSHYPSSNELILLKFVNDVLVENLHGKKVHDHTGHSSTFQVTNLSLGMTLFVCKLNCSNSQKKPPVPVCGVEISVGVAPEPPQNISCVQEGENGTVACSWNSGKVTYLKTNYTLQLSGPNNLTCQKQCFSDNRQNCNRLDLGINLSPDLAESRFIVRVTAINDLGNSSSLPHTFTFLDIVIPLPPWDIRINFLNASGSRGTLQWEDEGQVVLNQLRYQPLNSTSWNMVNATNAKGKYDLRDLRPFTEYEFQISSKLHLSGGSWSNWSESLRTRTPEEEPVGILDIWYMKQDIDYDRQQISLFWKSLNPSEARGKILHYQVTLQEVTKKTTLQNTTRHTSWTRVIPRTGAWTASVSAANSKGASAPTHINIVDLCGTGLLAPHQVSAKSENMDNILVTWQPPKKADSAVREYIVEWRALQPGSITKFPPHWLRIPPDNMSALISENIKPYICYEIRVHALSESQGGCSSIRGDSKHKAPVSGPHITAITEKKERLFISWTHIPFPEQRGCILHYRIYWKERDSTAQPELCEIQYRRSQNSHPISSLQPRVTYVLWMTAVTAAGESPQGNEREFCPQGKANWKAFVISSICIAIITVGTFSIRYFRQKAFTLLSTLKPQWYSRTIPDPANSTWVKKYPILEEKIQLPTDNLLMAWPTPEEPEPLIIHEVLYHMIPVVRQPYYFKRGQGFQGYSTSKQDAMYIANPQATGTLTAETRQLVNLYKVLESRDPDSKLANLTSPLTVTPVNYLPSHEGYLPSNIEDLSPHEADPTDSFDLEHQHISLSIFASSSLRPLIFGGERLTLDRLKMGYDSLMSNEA
# T2: biotinylated recombinant mouse IL-12Rβ2 (produced in-house) (mouse, UniProt P97378 24-637, random biotinylated)
# T2 construct: also called mIL-12RB2; mIL12RB2
# T2 sequence: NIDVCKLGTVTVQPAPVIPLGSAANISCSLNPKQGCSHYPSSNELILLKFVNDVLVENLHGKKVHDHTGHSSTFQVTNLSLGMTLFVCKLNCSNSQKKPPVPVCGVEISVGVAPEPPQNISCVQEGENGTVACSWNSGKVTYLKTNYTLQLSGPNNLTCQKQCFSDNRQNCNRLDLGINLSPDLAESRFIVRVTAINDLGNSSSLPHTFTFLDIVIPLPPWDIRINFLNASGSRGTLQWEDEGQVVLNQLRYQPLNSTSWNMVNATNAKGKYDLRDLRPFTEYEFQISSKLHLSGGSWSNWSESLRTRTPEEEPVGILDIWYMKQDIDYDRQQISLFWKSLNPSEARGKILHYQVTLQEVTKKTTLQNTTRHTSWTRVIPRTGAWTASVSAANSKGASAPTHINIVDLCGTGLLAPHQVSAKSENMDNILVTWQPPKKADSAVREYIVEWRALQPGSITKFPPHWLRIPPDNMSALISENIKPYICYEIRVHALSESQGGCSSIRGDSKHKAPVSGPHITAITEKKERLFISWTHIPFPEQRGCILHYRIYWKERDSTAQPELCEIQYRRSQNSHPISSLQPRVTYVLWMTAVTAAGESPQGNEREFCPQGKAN
# T3: biotinylated recombinant human IL-12Rβ2 (produced in-house) (human, UniProt Q99665 24-622, random biotinylated)
# T3 construct: also called hIL-12RB2; hIL12RB2
# T3 sequence: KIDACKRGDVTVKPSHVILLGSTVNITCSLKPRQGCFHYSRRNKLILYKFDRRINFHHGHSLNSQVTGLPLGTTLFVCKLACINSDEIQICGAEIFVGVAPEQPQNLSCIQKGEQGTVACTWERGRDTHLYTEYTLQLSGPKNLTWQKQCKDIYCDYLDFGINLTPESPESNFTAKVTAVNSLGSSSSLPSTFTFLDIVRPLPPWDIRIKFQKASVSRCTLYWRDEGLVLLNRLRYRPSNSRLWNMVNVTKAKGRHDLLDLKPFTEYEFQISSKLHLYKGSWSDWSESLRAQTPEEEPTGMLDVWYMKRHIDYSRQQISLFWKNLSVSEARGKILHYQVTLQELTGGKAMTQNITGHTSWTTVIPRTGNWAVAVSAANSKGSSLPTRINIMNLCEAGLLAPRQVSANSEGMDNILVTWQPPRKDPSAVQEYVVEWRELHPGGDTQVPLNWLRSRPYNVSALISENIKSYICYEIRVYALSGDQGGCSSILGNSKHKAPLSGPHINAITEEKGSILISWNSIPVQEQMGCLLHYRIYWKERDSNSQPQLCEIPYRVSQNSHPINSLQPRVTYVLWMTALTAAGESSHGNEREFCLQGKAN
# B1: anti-IL-12Rβ2 VHH clone 3CRHM99 (VHH, not shown: small tags and cut ends)
# VHH: QVQLQESGGGLVQPGGSLRLSCAASGISSSRLHVGWFRQSPGKEREFVAAISLSGGTQAYTDSVKGRFTISGDNVKNTAYLQMNSLRPEDTAVYYCAARERFIWTWSDLTYDYWGQGTQVTVSS
# notes: tested as periplasmic extract; also called 21062
# B2: anti-IL-12Rβ2 VHH clone 3CAHM11 (VHH, not shown: small tags and cut ends)
# VHH: QVQLQESGGGLVQAGGSLRLSCAASGRTFNNYAMAWFRQAPGKEREFIAAITRSDTTLYIDSVKGRFTISRDNAKNTVALQMNSLKPEDTAVYYCAAGMPYSYSDYPRDSKYDYWGRGTQVTVSS
# notes: tested as periplasmic extract
# B3: anti-IL-12Rβ2 VHH clone 3CRHM14 (VHH, not shown: small tags and cut ends)
# VHH: QVQLQESGGGLVQAGGSLRLSCAASGRTFSNYAMAWFRQAPGTEREFVAGLSGSGGDTEFYDDSVKGRFAISRDSAKNTVWLQMNSLKPEDTAVYYCAAATHVVVHYGLVRRRGTYDYWGQGTQVTVSS
# notes: tested as periplasmic extract
# B4: anti-IL-12Rβ2 VHH clone 3CRHM73 (VHH, not shown: small tags and cut ends)
# VHH: QVQLQESGGGLVQAGGSLSLSCAASGSAFRLNFMGWYRQAPGKQRELVAAINSGGTEIYHDSVKGRFTISRDNADSTVWLQMNSLKPDDTAVYYCAADRGISWSKLAGGMDYWGKGTQVTVSS
# notes: tested as periplasmic extract; also called 21060
# Target: T1, mouse IL-12Rβ2 expressed on cells
# Experiment: flow cytometry, P.E. VHH on HEK293T cells transiently expressing mIL-12RB2
% cells bound [%],dMFI,Binder
10.7,251,B1
7.53,194,B2
18.6,312,B3
10.4,257,B4

# Target: T2, biotinylated recombinant mouse IL-12Rβ2 …
# Experiment: BLI (Octet), P.E. VHH on immobilised biotinylated mIL-12RB2
row,Response,Binder
1,0.812,B1
2,1.03,B2
3,0.957,B3
4,0.944,B4

# Target: T3, biotinylated recombinant human IL-12Rβ2 …
# Experiment: BLI (Octet), P.E. VHH on immobilised biotinylated hIL-12RB2, 1:1 model
row,koff [s⁻¹],Binder
1,0.00634,B1
2,0.00519,B2
3,0.00532,B3
4,0.00605,B4

# Target: T3, biotinylated recombinant human IL-12Rβ2 …
# Experiment: ELISA, P.E. VHH on biotinylated hIL-12RB2, signal ratio to control well
row,ELISA hIL12RB2/control,Binder
1,4.24,B1
2,3.04,B2
3,3.11,B3
4,6.9,B4

# Target: T2, biotinylated recombinant mouse IL-12Rβ2 …
# Experiment: BLI (Octet), P.E. VHH on immobilised biotinylated mIL-12RB2, 1:1 model
row,koff [s⁻¹],Binder
1,0.00671,B1
2,0.00462,B2
3,0.00483,B3
4,0.00605,B4

# Target: T3, biotinylated recombinant human IL-12Rβ2 …
# Experiment: BLI (Octet), P.E. VHH on immobilised biotinylated hIL-12RB2
row,Response,Binder
1,1.45,B1
2,1.4,B2
3,1.19,B3
4,1.45,B4

# Target: T1, mouse IL-12Rβ2 expressed on cells
# Experiment: flow cytometry, P.E. VHH on HEK293T cells stably expressing mIL-12RB2
% cells bound [%],dMFI,Binder
57.3,309,B1
56.9,316,B2
26.2,136,B3
27.3,150,B4
